Results from patent publication US20230295324A1 (published 2023).

Tests used:
[1] = target: T1, human OX40 on cells (CHO-K1/hu OX40) (human, UniProt P43489 29-277); test: FACS, blocking of biotin-human OX40L on CHO-K1/hu OX40 cells
T1 construct: whole, on cells; Also used here for OX40 on the HEK293/OX40/NF-kb reporter cells and on human T cells in the functional assays; also called CHO-K1/OX40; human OX40 cells
T1 sequence (looked up): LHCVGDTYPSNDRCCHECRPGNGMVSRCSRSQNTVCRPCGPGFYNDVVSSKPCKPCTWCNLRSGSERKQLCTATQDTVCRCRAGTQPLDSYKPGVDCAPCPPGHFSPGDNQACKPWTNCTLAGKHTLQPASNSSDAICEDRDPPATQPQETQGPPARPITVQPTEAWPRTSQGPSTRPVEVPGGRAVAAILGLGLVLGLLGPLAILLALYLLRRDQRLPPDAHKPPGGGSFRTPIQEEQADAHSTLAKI
Description: Briefly, the CHO-K1/hu OX40 cells were digested and resuspended in an F-12K complete medium, and the cell density was adjusted to 1×10⁶ cells/mL. The cells were seeded in a 96-well V-bottom plate (Corning, #3894) at 100 μL/well, and centrifuged, and then the supernatant was discarded. The test antigen-binding proteins diluted in a 3-fold gradient at concentrations that were 2 times the final concentrations were added at 100 μL/well, and the mixture was well mixed, wherein the antigen-binding protein had the highest final concentration of 100 nM, and a total of 8 concentrations were obtained. […] The cells were incubated at 4° C. for 1 h away from light. Thereafter, the cells were centrifuged at 4° C. for 5 min, and then the supernatant was discarded. […] The cells in each well were rinsed twice with 100 μL of pre-cooled PBS, and centrifuged at 500 g at 4° C. for 5 min, and then the supernatant was discarded. A 1:200 fluorescent secondary antibody PE Streptavidin (BD Biosciences, #554061) was added at 100 μL/well, and the cells were incubated away from light at 4° C. for 30 min. The cells in each well were rinsed twice with 200 μL of pre-cooled PBS, and centrifuged at 500 g at 4° C. for 5 min, and then the supernatant was discarded. Finally, the cells in each well were resuspended in 200 μL of precooled PBS. Fluorescence signal values were read using BD FACS CANTOII, and IC50 was calculated. Inhibition rate %={average MFI of non-blocking control well−MFI value of OX40 antibody}/{(average MFI of non-blocking control well)−average MFI of 100% blocking control well)}×100%.

[2] = target: T1, human OX40 on cells (CHO-K1/hu OX40); test: FACS, CHO-K1/hu OX40 cells
Description: This example is intended to investigate the in vitro binding activity of anti-human OX40 HCAb monoclonal antibodies to human OX40. The antibody binding assay at the cellular level was performed using a stable CHO-K1 cell strain overexpressing human OX40 (CHO-K1/hu OX40). Briefly, the CHO-K1/hu OX40 cells were digested, resuspended in an F12K complete medium and washed once with PBS. The cell density was adjusted to 1×10⁶ cells/mL with PBS. The cells were seeded in a 96-well V-bottom plate (Corning, #3894) at 100 μL/well, and centrifuged, and then the supernatant was discarded. Then, the test antibodies diluted in a 3-fold gradient at concentrations that were 2 times the final concentrations were added at 100 μL/well. The cells were incubated at 4° C. for 1 h away from light. Thereafter, the cells in each well were rinsed twice with 100 μL of pre-cooled PBS, and centrifuged at 500 g at 4° C. for 5 min, and then the supernatant was discarded. […] The plate was incubated away from light at 4° C. for 30 min. The cells in each well were rinsed twice with 100 μL of pre-cooled PBS, and centrifuged at 500 g at 4° C. for 5 min, and then the supernatant was discarded. Finally, the cells in each well were resuspended in 200 μL of pre-cooled PBS, and the fluorescence signal values were read using a BD FACS CANTOII.

[3] = target: T1, human OX40 on cells (CHO-K1/hu OX40); test: cell-based or functional assay
[4] = target: T2, human OX40 protein (Acro biosystem, #OX0-H5224) (human, UniProt P43489 29-216); test: ELISA, coated human OX40 protein
T2 construct: Bought recombinant protein
T2 sequence (looked up): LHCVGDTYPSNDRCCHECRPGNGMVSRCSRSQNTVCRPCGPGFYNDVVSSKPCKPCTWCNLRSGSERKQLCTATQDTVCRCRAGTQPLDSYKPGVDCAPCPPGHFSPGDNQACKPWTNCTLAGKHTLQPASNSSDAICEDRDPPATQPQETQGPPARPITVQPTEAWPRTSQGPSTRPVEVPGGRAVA
Description: (§1) This example is intended to investigate the in vitro binding activity of the anti-OX40 HCAb monoclonal antibodies prepared in Example 1 to human and cynomolgus monkey OX40 proteins. The antibody binding assay at the protein level was performed using a human OX40 protein (Acro biosystem, #OX0-H5224) and a cynomolgus monkey OX40 protein (Novoprotein, #CB17). Briefly, a 384-well plate (PerkinElmer, #6007509) was coated with 1 μg/mL human OX40 protein and a cynomolgus monkey OX40 protein dissolved in PBS at 20 μL/well, and incubated at 4° C. overnight. The next day, the 384-well plate was washed three times with PBS containing 0.05% Tween (MEDICAGO, #09-9410-100), and blocked with PBS containing 2% milk (Bio-Rad, #170-6404) at 37° C. for 1 h. […] The plate was added with a stop buffer (BBI life sciences, #E661006-0200) at 20 μL/well, and read for OD₄₅₀₋₆₅₀ values using a plate reader (Molecular Devices, model: SpectraMax Plus). The values were analyzed with Graphad 8.0 and plotted.

[5] = target: T3, cynomolgus monkey OX40 protein (Novoprotein, #CB17) (cynomolgus monkey); test: ELISA, coated cyno OX40 protein
T3 construct: Bought recombinant protein; also called cyno OX40
Description: as §1

B1: PR002062 (antibody, human IgG1, V domains shown)
VH: EVQLLESGGGLVQPGGSLRLSCAASGFTFSSYAMSWVRQAPGKGQEWVSAISGSGGSTFYADSVRGRFTISRDNSKNTLYLQMSSLRAEDTAVYYCANGMTGTTDVDYWGQGTLVTVSS
notes: no light chain; also called anti-OX40 HCAb antibody
[1]
  Maximum inhibition rate (%): 13%
[2]
  EC50: 37.9 nM
  Maximum MFI: 1900 MFI
[3]
  EC50, HEK293/OX40/NF-kb luciferase reporter: 25.2 nM
  Maximum fluorescence signal value, HEK293/OX40/NF-kb luciferase reporter: 149000 luminescence
[4]
  EC50: 0.103 nM
  Maximum OD: 1.94 OD
[5]
  EC50: 0.126 nM
  Maximum OD: 1.81 OD

B2: PR002070 (antibody, human IgG1, V domains shown)
VH: EVQLLESGGGLVQPGGSLRLSCIASGFSFSSYAMSWVRQAPGKGLEWVSAISGRGGSTFYADSVRGRFNISRDNSKNTLYLQMNSLRVEDTAVYYCANGMTGTTDVDYWGQGTLVTVSS
notes: as for B1
[1]
  IC50: 67.6 nM
  Maximum inhibition rate (%): 46%
[2]
  EC50: 4.39 nM
  Maximum MFI: 2530 MFI
[3]
  EC50, HEK293/OX40/NF-kb luciferase reporter: 7.6 nM
  Maximum fluorescence signal value, HEK293/OX40/NF-kb luciferase reporter: 129000 luminescence
[4]
  EC50: 0.0729 nM
  Maximum OD: 2.4 OD
[5]
  EC50: 0.132 nM
  Maximum OD: 2.51 OD

B3: PR002076 (antibody, human IgG1, V domains shown)
VH: EVQLLESGGGLVQPGGSLRLSCAASGFTFSSYAMSWVRQAPGKGLEWVSAISGSGGNTYYADSVRGRFTISRDNSKNTLYLQMNSLRAEDTAVYYCANGMTGTTDVDYWGQGTRVTVSS
notes: as for B1
[1]
  Maximum inhibition rate (%): 0%
[2]
  EC50: 24.6 nM
  Maximum MFI: 1380 MFI
[3]
  EC50, HEK293/OX40/NF-kb luciferase reporter: 67 nM
  Maximum fluorescence signal value, HEK293/OX40/NF-kb luciferase reporter: 141000 luminescence
[4]
  EC50: 0.065 nM
  Maximum OD: 2.8 OD
[5]
  EC50: 0.116 nM
  Maximum OD: 2.05 OD

B4: PR002072 (antibody, human IgG1, V domains shown)
VH: EVQLLESGGGLVQPGGSLRLSCAASGFTFSSYAMSWVRQASGKGLEWISAISGSGGSTYYADSVRGRFTISRDNSKNTLYLQMNSLRADDTAVYYCANGMTGTTDVDFWGQGTPVTVSS
notes: as for B1
[1]
  Maximum inhibition rate (%): 14%
[2]
  EC50: 5.64 nM
  Maximum MFI: 1400 MFI
[3]
  EC50, HEK293/OX40/NF-kb luciferase reporter: 14.2 nM
  Maximum fluorescence signal value, HEK293/OX40/NF-kb luciferase reporter: 99600 luminescence
[4]
  EC50: 0.0577 nM
  Maximum OD: 2.47 OD
[5]
  EC50: 0.217 nM
  Maximum OD: 2.97 OD

B5: PR002069 (antibody, human IgG1, V domains shown)
VH: EVQLLESGGGLVQPGGSLRLSCAASGFTFSSYAMSWVRQAPGKGREWVSAISGGGGNTFYADSVRGRFTISRDNSKNTLYLQMNSLRAEDTAVYYCANGVTGTTDVDYWGQGTLVTVSS
notes: as for B1
[1]
  IC50: 50.9 nM
  Maximum inhibition rate (%): 53%
[2]
  EC50: 4.43 nM
  Maximum MFI: 2990 MFI
[3]
  EC50, HEK293/OX40/NF-kb luciferase reporter: 6.27 nM
  Maximum fluorescence signal value, HEK293/OX40/NF-kb luciferase reporter: 99700 luminescence
[4]
  EC50: 0.051 nM
  Maximum OD: 2.24 OD
[5]
  EC50: 0.129 nM
  Maximum OD: 2.24 OD

B6: PR002068 (antibody, human IgG1, V domains shown)
VH: EVQLLESGGGLVQPGGSLRLSCAASGFSFSSYAMTWVRQAPGKGLEWVSAISGGGGSIFYADSVRGRFTISRDNSKNTLYLQMNSLRAEDTAVYYCANGMTGSTDVDYWGQGTQVTVSS
notes: as for B1
[1]
  IC50: 23.1 nM
  Maximum inhibition rate (%): 25%
[2]
  EC50: 10.1 nM
  Maximum MFI: 2130 MFI
[3]
  EC50, HEK293/OX40/NF-kb luciferase reporter: 22.9 nM
  Maximum fluorescence signal value, HEK293/OX40/NF-kb luciferase reporter: 139000 luminescence
[4]
  EC50: 0.092 nM
  Maximum OD: 2.42 OD
[5]
  EC50: 0.253 nM
  Maximum OD: 2.38 OD

B7: PR002071 (antibody, human IgG1, V domains shown)
VH: EVQLVESGGGLVQPGGSLRLSCAASGFTFSSYAMSWVRQAPGKGLEWVSAISGGGGSIFYADSVRGRFTISRDNSKNTLYLQMNSLRAEDTAVYYCANGMTGTTDVDYWGQGTLVTVSS
notes: as for B1
[1]
  IC50: 51.7 nM
  Maximum inhibition rate (%): 50%
[2]
  EC50: 4 nM
  Maximum MFI: 3060 MFI
[3]
  EC50, HEK293/OX40/NF-kb luciferase reporter: 7.85 nM
  Maximum fluorescence signal value, HEK293/OX40/NF-kb luciferase reporter: 144000 luminescence
[4]
  EC50: 0.0502 nM
  Maximum OD: 2.45 OD
[5]
  EC50: 0.202 nM
  Maximum OD: 2.93 OD

B8: PR002064 (antibody, human IgG1, V domains shown)
VH: EVQLVETGGGLVQPGGSLRLSCAASGFTFSSYAMSWVRQAPGKGQEWVSAISGSGGSTFYADSVRGRFTISRDNSKNTLYLQMSSLRAEDTAVYYCANGMTGTTDVDYWGQGTLVTVSS
notes: as for B1
[1]
  Maximum inhibition rate (%): 20%
[2]
  EC50: 22.4 nM
  Maximum MFI: 1570 MFI
[3]
  EC50, HEK293/OX40/NF-kb luciferase reporter: 30.3 nM
  Maximum fluorescence signal value, HEK293/OX40/NF-kb luciferase reporter: 147000 luminescence
[4]
  EC50: 0.0814 nM
  Maximum OD: 2.28 OD
[5]
  EC50: 0.218 nM
  Maximum OD: 2.08 OD
